# According to PMC9482650, “Quantitative fragmentomics allow affinity mapping of interactomes” (Nature Communications, 2022):
# T1: PDZRN3_1, Q9UPQ7
# T1 sequence (Q9UPQ7 244-349, limits assumed, looked up): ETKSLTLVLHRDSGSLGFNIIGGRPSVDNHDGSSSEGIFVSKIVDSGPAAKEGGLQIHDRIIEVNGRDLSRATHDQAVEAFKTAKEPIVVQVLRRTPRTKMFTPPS
# T2: TX1BP3, O14907
# T2 sequence (O14907 10-122, limits assumed, looked up): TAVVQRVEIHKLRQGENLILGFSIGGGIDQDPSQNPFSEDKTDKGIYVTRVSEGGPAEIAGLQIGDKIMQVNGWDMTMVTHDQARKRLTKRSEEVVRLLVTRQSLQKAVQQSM
# T3: APBA2_2, Q99767
# T3 sequence (Q99767 654-744, limits assumed, looked up): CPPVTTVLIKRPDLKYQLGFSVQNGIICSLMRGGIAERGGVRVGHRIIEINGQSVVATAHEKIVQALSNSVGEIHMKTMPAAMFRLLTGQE
# T4: GRIP1_3, Q9Y3R0
# T4 sequence (Q9Y3R0 247-346, limits assumed, looked up): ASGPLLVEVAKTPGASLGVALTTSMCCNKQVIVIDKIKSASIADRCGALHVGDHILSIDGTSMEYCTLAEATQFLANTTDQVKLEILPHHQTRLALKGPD
# T5: GRIP1_5, Q9Y3R0
# T5 sequence (Q9Y3R0 568-668, limits assumed, looked up): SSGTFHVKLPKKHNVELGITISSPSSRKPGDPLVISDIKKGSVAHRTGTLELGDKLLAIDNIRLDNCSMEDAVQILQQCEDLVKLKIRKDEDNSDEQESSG
# T6: SNTB1, Q13884
# T6 sequence (Q13884 107-205, limits assumed, looked up): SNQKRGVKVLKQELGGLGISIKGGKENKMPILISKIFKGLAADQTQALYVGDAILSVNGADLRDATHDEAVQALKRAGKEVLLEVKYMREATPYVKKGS
# T7: RADIL, Q96JH8
# T7 sequence (Q96JH8 971-1071, limits assumed, looked up): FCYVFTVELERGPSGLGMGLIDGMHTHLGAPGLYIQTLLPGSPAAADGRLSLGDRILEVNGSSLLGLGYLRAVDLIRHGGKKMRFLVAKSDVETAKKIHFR
# B1: RAB9A, P51151 (peptide)
# chain: RKPKPSSSCC
# Target: T1, PDZRN3_1, Q9UPQ7
# Assay: holdup assay
# Design: key: below the threshold = too weak to quantify, mostly under pKd 3.1 to 4
# Details: plain residues with an end cap or a label only (N-terminal biotin on a linker: ado-ado)
row,pKd,Binder
1,below the threshold,B1

# Target: FRMPD3, Q5JV73
# Assay: holdup assay
# Design: key: below the threshold = too weak to quantify, mostly under pKd 3.1 to 4
# Details: plain residues with an end cap or a label only (N-terminal biotin on a linker: ado-ado)
# Chain of FRMPD3, Q5JV73 (Q5JV73 12-100): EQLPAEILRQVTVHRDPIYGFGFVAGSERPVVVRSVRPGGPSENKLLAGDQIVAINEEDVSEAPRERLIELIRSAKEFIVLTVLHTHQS
row,pKd,Binder
1,below the threshold,B1

# Target: LNX1_2, Q8TBB1
# Assay: holdup assay
# Design: key: below the threshold = too weak to quantify, mostly under pKd 3.1 to 4
# Details: plain residues with an end cap or a label only (N-terminal biotin on a linker: ado-ado)
# Chain of LNX1_2, Q8TBB1 (Q8TBB1 371-470): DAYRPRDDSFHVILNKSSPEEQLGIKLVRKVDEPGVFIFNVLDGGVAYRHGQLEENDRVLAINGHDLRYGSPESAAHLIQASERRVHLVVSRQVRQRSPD
row,pKd,Binder
1,below the threshold,B1

# Target: Inadl_1, Q8NI35
# Assay: holdup assay
# Design: key: below the threshold = too weak to quantify, mostly under pKd 3.1 to 4
# Details: plain residues with an end cap or a label only (N-terminal biotin on a linker: ado-ado)
# Chain of Inadl_1, Q8NI35 (Q8NI35 113-229): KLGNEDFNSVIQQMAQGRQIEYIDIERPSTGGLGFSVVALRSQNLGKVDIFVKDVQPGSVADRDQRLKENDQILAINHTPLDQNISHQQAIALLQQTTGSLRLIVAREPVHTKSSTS
row,pKd,Binder
1,below the threshold,B1

# Target: MAGI2_6, Q86UL8
# Assay: holdup assay
# Design: key: below the threshold = too weak to quantify, mostly under pKd 3.1 to 4
# Details: plain residues with an end cap or a label only (N-terminal biotin on a linker: ado-ado)
# Chain of MAGI2_6, Q86UL8 (Q86UL8 1141-1229): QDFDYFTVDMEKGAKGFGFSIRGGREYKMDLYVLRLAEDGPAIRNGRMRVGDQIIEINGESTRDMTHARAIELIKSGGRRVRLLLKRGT
row,pKd,Binder
1,below the threshold,B1

# Target: T2, TX1BP3, O14907
# Assay: holdup assay
# Design: key: below the threshold = too weak to quantify, mostly under pKd 3.1 to 4
# Details: plain residues with an end cap or a label only (N-terminal biotin on a linker: ado-ado)
row,pKd,Binder
1,3.89,B1

# Target: T3, APBA2_2, Q99767
# Assay: holdup assay
# Design: key: below the threshold = too weak to quantify, mostly under pKd 3.1 to 4
# Details: plain residues with an end cap or a label only (N-terminal biotin on a linker: ado-ado)
row,pKd,Binder
1,below the threshold,B1

# Target: SNX27, Q96L92
# Assay: holdup assay
# Design: key: below the threshold = too weak to quantify, mostly under pKd 3.1 to 4
# Details: plain residues with an end cap or a label only (N-terminal biotin on a linker: ado-ado)
row,pKd,Binder
1,below the threshold,B1

# Target: MAGI2_5, Q86UL8
# Assay: holdup assay
# Design: key: below the threshold = too weak to quantify, mostly under pKd 3.1 to 4
# Details: plain residues with an end cap or a label only (N-terminal biotin on a linker: ado-ado)
# Chain of MAGI2_5, Q86UL8 (Q86UL8 915-1017): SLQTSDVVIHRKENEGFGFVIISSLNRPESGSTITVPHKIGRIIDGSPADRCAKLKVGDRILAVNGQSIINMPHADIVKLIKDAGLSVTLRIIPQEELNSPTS
row,pKd,Binder
1,below the threshold,B1

# Target: T4, GRIP1_3, Q9Y3R0
# Assay: holdup assay
# Design: key: below the threshold = too weak to quantify, mostly under pKd 3.1 to 4
# Details: plain residues with an end cap or a label only (N-terminal biotin on a linker: ado-ado)
row,pKd,Binder
1,below the threshold,B1

# Target: GORASP1, Q9BQQ3
# Assay: holdup assay
# Design: key: below the threshold = too weak to quantify, mostly under pKd 3.1 to 4
# Details: plain residues with an end cap or a label only (N-terminal biotin on a linker: ado-ado)
# Chain of GORASP1, Q9BQQ3 (Q9BQQ3 1-208): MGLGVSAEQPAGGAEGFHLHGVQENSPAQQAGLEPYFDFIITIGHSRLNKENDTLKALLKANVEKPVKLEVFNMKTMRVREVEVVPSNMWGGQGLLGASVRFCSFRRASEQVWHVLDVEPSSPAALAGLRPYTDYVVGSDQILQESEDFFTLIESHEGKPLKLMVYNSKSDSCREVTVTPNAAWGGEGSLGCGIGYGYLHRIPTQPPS
row,pKd,Binder
1,below the threshold,B1

# Target: T5, GRIP1_5, Q9Y3R0
# Assay: holdup assay
# Design: key: below the threshold = too weak to quantify, mostly under pKd 3.1 to 4
# Details: plain residues with an end cap or a label only (N-terminal biotin on a linker: ado-ado)
row,pKd,Binder
1,below the threshold,B1

# Target: SCRIB_2, Q14160
# Assay: holdup assay
# Design: key: below the threshold = too weak to quantify, mostly under pKd 3.1 to 4
# Details: plain residues with an end cap or a label only (N-terminal biotin on a linker: ado-ado)
# Chain of SCRIB_2, Q14160 (Q14160 857-960): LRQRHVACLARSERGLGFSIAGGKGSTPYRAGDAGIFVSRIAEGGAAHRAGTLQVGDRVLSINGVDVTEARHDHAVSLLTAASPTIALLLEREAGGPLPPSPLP
row,pKd,Binder
1,below the threshold,B1

# Target: MAGI1_2, Q96QZ7
# Assay: holdup assay
# Design: key: below the threshold = too weak to quantify, mostly under pKd 3.1 to 4
# Details: plain residues with an end cap or a label only (N-terminal biotin on a linker: ado-ado)
# Chain of MAGI1_2, Q96QZ7 (Q96QZ7 456-580): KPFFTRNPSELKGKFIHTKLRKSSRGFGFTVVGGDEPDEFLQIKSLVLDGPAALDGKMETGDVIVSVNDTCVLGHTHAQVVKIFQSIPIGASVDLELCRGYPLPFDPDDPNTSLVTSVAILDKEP
row,pKd,Binder
1,3.64,B1

# Target: CASK, O14936
# Assay: holdup assay
# Design: key: below the threshold = too weak to quantify, mostly under pKd 3.1 to 4
# Details: plain residues with an end cap or a label only (N-terminal biotin on a linker: ado-ado)
# Chain of CASK, O14936 (O14936 487-570): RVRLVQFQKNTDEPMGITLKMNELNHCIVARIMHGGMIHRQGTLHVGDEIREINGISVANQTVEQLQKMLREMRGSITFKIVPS
row,pKd,Binder
1,below the threshold,B1

# Target: GRIP2_7, Q9C0E4
# Assay: holdup assay
# Design: key: below the threshold = too weak to quantify, mostly under pKd 3.1 to 4
# Details: plain residues with an end cap or a label only (N-terminal biotin on a linker: ado-ado)
# Chain of GRIP2_7, Q9C0E4 (Q9C0E4 934-1023): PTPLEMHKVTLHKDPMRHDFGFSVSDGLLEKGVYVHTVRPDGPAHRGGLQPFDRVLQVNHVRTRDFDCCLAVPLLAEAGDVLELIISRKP
row,pKd,Binder
1,below the threshold,B1

# Target: MAGI1_1, Q96QZ7
# Assay: holdup assay
# Design: key: below the threshold = too weak to quantify, mostly under pKd 3.1 to 4
# Details: plain residues with an end cap or a label only (N-terminal biotin on a linker: ado-ado)
# Chain of MAGI1_1, Q96QZ7 (Q96QZ7 1-106): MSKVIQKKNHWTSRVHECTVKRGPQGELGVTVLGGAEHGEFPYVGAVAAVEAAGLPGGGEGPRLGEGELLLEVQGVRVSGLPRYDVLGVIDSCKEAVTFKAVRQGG
row,pKd,Binder
1,below the threshold,B1

# Target: LNX1_3, Q8TBB1
# Assay: holdup assay
# Design: key: below the threshold = too weak to quantify, mostly under pKd 3.1 to 4
# Details: plain residues with an end cap or a label only (N-terminal biotin on a linker: ado-ado)
# Chain of LNX1_3, Q8TBB1 (Q8TBB1 500-596): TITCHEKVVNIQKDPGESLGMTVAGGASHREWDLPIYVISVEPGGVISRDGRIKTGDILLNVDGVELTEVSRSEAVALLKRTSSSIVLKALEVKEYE
row,pKd,Binder
1,below the threshold,B1

# Target: T6, SNTB1, Q13884
# Assay: holdup assay
# Design: key: below the threshold = too weak to quantify, mostly under pKd 3.1 to 4
# Details: plain residues with an end cap or a label only (N-terminal biotin on a linker: ado-ado)
row,pKd,Binder
1,below the threshold,B1

# Target: T7, RADIL, Q96JH8
# Assay: holdup assay
# Design: key: below the threshold = too weak to quantify, mostly under pKd 3.1 to 4
# Details: plain residues with an end cap or a label only (N-terminal biotin on a linker: ado-ado)
row,pKd,Binder
1,below the threshold,B1

# Target: DLG4_2, P78352
# Assay: holdup assay
# Design: key: below the threshold = too weak to quantify, mostly under pKd 3.1 to 4
# Details: plain residues with an end cap or a label only (N-terminal biotin on a linker: ado-ado)
# Chain of DLG4_2, P78352 (P78352 155-259): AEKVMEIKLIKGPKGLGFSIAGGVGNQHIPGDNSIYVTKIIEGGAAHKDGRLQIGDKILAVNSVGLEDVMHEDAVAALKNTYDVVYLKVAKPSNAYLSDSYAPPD
row,pKd,Binder
1,below the threshold,B1

# Target: IL16_4, Q14005
# Assay: holdup assay
# Design: key: below the threshold = too weak to quantify, mostly under pKd 3.1 to 4
# Details: plain residues with an end cap or a label only (N-terminal biotin on a linker: ado-ado)
# Chain of IL16_4, Q14005 (Q14005 1229-1329): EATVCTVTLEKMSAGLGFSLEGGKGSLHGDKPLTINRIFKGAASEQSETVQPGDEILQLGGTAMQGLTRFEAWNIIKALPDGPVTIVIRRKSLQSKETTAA
row,pKd,Binder
1,below the threshold,B1

# Target: LNX1_1, Q8TBB1
# Assay: holdup assay
# Design: key: below the threshold = too weak to quantify, mostly under pKd 3.1 to 4
# Details: plain residues with an end cap or a label only (N-terminal biotin on a linker: ado-ado)
# Chain of LNX1_1, Q8TBB1 (Q8TBB1 261-371): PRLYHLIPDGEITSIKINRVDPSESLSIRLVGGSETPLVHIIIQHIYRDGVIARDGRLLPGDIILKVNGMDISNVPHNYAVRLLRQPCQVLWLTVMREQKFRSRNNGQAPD
row,pKd,Binder
1,below the threshold,B1

# Target: Inadl_6, Q8NI35
# Assay: holdup assay
# Design: key: below the threshold = too weak to quantify, mostly under pKd 3.1 to 4
# Details: plain residues with an end cap or a label only (N-terminal biotin on a linker: ado-ado)
# Chain of Inadl_6, Q8NI35 (Q8NI35 1058-1167): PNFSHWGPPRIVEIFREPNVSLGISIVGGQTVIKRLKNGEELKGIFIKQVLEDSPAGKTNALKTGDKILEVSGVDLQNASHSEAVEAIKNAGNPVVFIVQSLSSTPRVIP
row,pKd,Binder
1,below the threshold,B1

# Target: PICK1, Q9NRD5
# Assay: holdup assay
# Design: key: below the threshold = too weak to quantify, mostly under pKd 3.1 to 4
# Details: plain residues with an end cap or a label only (N-terminal biotin on a linker: ado-ado)
# Chain of PICK1, Q9NRD5 (Q9NRD5 17-115): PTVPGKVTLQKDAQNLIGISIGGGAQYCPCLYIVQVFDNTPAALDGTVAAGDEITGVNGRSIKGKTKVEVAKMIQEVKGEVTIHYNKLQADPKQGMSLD
row,pKd,Binder
1,below the threshold,B1

# Target: PDZRN4_1, Q6ZMN7
# Assay: holdup assay
# Design: key: below the threshold = too weak to quantify, mostly under pKd 3.1 to 4
# Details: plain residues with an end cap or a label only (N-terminal biotin on a linker: ado-ado)
# Chain of PDZRN4_1, Q6ZMN7 (Q6ZMN7 213-318): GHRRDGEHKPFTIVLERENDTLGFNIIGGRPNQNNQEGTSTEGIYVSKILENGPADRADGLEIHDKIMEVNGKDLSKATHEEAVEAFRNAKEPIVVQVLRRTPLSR
row,pKd,Binder
1,below the threshold,B1

# Target: DLG4_3, P78352
# Assay: holdup assay
# Design: key: below the threshold = too weak to quantify, mostly under pKd 3.1 to 4
# Details: plain residues with an end cap or a label only (N-terminal biotin on a linker: ado-ado)
# Chain of DLG4_3, P78352 (P78352 306-403): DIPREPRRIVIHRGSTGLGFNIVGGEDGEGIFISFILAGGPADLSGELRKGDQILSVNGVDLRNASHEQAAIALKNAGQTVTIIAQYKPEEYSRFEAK
row,pKd,Binder
1,below the threshold,B1

# Target: SCRIB_3, Q14160
# Assay: holdup assay
# Design: key: below the threshold = too weak to quantify, mostly under pKd 3.1 to 4
# Details: plain residues with an end cap or a label only (N-terminal biotin on a linker: ado-ado)
# Chain of SCRIB_3, Q14160 (Q14160 999-1103): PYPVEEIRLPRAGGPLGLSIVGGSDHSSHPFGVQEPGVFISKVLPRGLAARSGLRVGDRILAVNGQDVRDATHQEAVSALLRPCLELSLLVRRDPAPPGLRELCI
row,pKd,Binder
1,below the threshold,B1

# Target: GRIP2_4, Q9C0E4
# Assay: holdup assay
# Design: key: below the threshold = too weak to quantify, mostly under pKd 3.1 to 4
# Details: plain residues with an end cap or a label only (N-terminal biotin on a linker: ado-ado)
# Chain of GRIP2_4, Q9C0E4 (Q9C0E4 446-548): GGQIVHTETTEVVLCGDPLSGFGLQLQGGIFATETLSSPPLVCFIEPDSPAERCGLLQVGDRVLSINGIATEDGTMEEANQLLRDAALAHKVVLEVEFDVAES
row,pKd,Binder
1,below the threshold,B1

# Target: FRMPD4, Q14CM0
# Assay: holdup assay
# Design: key: below the threshold = too weak to quantify, mostly under pKd 3.1 to 4
# Details: plain residues with an end cap or a label only (N-terminal biotin on a linker: ado-ado)
# Chain of FRMPD4, Q14CM0 (Q14CM0 67-160): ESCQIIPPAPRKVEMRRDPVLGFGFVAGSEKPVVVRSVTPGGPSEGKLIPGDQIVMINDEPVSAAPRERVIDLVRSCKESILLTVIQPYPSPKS
row,pKd,Binder
1,below the threshold,B1
